Experimental data taken from article PMC5027613, “A second DNA binding site in human BRCA2 promotes homologous recombination”.

How the values were obtained:
BRCA2T1 [1] = biological target: T1, BRCA2T1 (human, UniProt P51587 1-250); experiment: pull-down; not titrated out by free dT40; EMSA: 25 mM Tris acetate pH 7.5, 1 mM DTT, 1 mM MgCl2, 2 mM CaCl2, 0.2 uM nucleotides DNA, 1 h at 37 C; 6% native PAGE in 1x TAE; conditions: protein: recombinant; tags: N-terminal 2xMBP, 2 NLS; label: biotin, on streptavidin beads
T1 sequence: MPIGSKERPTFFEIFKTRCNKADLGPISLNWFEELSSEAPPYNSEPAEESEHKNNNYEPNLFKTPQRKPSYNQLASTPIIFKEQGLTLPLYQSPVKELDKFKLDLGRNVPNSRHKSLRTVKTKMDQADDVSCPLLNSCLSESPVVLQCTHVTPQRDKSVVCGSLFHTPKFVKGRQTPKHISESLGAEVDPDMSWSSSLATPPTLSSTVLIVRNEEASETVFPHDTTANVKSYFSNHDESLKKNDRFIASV

BRCA2T2 (NTD) [2] = biological target: T2, BRCA2T2 (NTD) (human, UniProt P51587 251-500); experiment: pull-down; titrated out by excess free dT40; EMSA: 25 mM Tris acetate pH 7.5, 1 mM DTT, 1 mM MgCl2, 2 mM CaCl2, 0.2 uM nucleotides DNA, 1 h at 37 C; 6% native PAGE in 1x TAE; conditions: protein: recombinant; tags: N-terminal 2xMBP, 2 NLS; label: biotin, on streptavidin beads
T2 sequence: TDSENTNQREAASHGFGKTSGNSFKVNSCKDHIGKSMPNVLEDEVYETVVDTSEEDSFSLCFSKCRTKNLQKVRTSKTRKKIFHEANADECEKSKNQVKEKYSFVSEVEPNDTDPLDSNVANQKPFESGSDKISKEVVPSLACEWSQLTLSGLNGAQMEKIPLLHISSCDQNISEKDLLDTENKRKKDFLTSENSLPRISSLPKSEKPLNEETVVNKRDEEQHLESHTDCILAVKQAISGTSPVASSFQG

BRCA2T1 [3] = biological target: T1, BRCA2T1; experiment: EMSA; up to 300 nM; EMSA: 25 mM Tris acetate pH 7.5, 1 mM DTT, 1 mM MgCl2, 2 mM CaCl2, 0.2 uM nucleotides DNA, 1 h at 37 C; 6% native PAGE in 1x TAE; conditions: protein: recombinant; tags: N-terminal 2xMBP, 2 NLS; label: 5'-32P
BRCA2 CTD;DSS1 [4] = biological target: T3, BRCA2 CTD;DSS1 (human;human?, UniProt P51587;P60896 2474-3190;1-70, |); experiment: EMSA; EMSA: 25 mM Tris acetate pH 7.5, 1 mM DTT, 1 mM MgCl2, 2 mM CaCl2, 0.2 uM nucleotides DNA, 1 h at 37 C; 6% native PAGE in 1x TAE; conditions: protein: recombinant;recombinant; tags: 6xHis-SUMO;; copies: 1;1; label: 5'-32P on oAC405; blunt
BRCA2 CTD;DSS1 [5] = biological target: T3, BRCA2 CTD;DSS1; experiment: EMSA; lower yield than BRCA2T2; EMSA: 25 mM Tris acetate pH 7.5, 1 mM DTT, 1 mM MgCl2, 2 mM CaCl2, 0.2 uM nucleotides DNA, 1 h at 37 C; 6% native PAGE in 1x TAE; conditions: protein: recombinant;recombinant, tags: 6xHis-SUMO;, copies: 1;1
BRCA2T2 (NTD) [6] = biological target: T2, BRCA2T2 (NTD); experiment: EMSA; yield similar to dsDNA (~40%) at 1.5 uM; EMSA: 25 mM Tris acetate pH 7.5, 1 mM DTT, 1 mM MgCl2, 2 mM CaCl2, 0.2 uM nucleotides DNA, 1 h at 37 C; 6% native PAGE in 1x TAE; conditions: protein: recombinant; tags: N-terminal 2xMBP, 2 NLS; label: 5'-32P
BRCA2 full length = BRCA2 full length (human, UniProt P51587 1-3418); experiment: EMSA; ~100 times lower concentration needed than BRCA2T2; EMSA: 25 mM Tris acetate pH 7.5, 1 mM DTT, 1 mM MgCl2, 2 mM CaCl2, 0.2 uM nucleotides DNA, 1 h at 37 C; 6% native PAGE in 1x TAE; conditions: protein: recombinant; tags: N-terminal EGFP-MBP; label: 5'-32P
BRCA2T2 (NTD) [7] = biological target: T2, BRCA2T2 (NTD); experiment: EMSA; higher yield than CTD; EMSA: 25 mM Tris acetate pH 7.5, 1 mM DTT, 1 mM MgCl2, 2 mM CaCl2, 0.2 uM nucleotides DNA, 1 h at 37 C; 6% native PAGE in 1x TAE; conditions: protein: recombinant, tags: N-terminal 2xMBP, 2 NLS
BRCA2T2 (NTD) [8] = biological target: T2, BRCA2T2 (NTD); experiment: EMSA; EMSA: 25 mM Tris acetate pH 7.5, 1 mM DTT, 1 mM MgCl2, 2 mM CaCl2, 0.2 uM nucleotides DNA, 1 h at 37 C; 6% native PAGE in 1x TAE; conditions: protein: recombinant; tags: N-terminal 2xMBP, 2 NLS; label: 32P; 1:2 1:3, two 42 bp duplexes with 83 nt gap
BRCA2 CTD;DSS1 [9] = biological target: T3, BRCA2 CTD;DSS1; experiment: EMSA; ~40-fold lower yield than BRCA2T2 at 1 uM; EMSA: 25 mM Tris acetate pH 7.5, 1 mM DTT, 1 mM MgCl2, 2 mM CaCl2, 0.2 uM nucleotides DNA, 1 h at 37 C; 6% native PAGE in 1x TAE; conditions: protein: recombinant;recombinant; tags: 6xHis-SUMO;; copies: 1;1; label: 32P; 1:2 1:3, two 42 bp duplexes with 83 nt gap

B1: dT80 biotin (ssDNA)
DNA: TTTTTTTTTTTTTTTTTTTTTTTTTTTTTTTTTTTTTTTTTTTTTTTTTTTTTTTTTTTTTTTTTTTTTTTTTTTTTTTT
modifications: 3'-biotin
- binding result (BRCA2T1 [1]): no binding
- binding result (BRCA2T2 (NTD) [2]): binds

Binder: TTTTTTTTTTTTTTTTTTTTTTTTTTTTTTTTTTTTTTTT (ssDNA) [dT40 (oAC379)]
- binding result (BRCA2T1 [3]): no binding

B2: 40 bp dsDNA (oAC405/oAC406) (dsDNA)
DNA 1: TAATACAAAATAAGTAAATGAATAAACAGAGAAAATAAAG
DNA 2: CTTTATTTTCTCTGTTTATTCATTTACTTATTTTGTATTA
- binding result (BRCA2 CTD;DSS1 [4]): no binding

B3: 167mer ssDNA (oAC423) (ssDNA)
DNA: CTGCTTTATCAAGATAATTTTTCGACTCATCAGAAATATCCGTTTCCTATATTTATTCCTATTATGTTTTATTCATTTACTTATTCTTTATGTTCATTTTTTATATCCTTTACTTTATTTTCTCTGTTTATTCATTTACTTATTTTGTATTATCCTTATCTTATTTA
- binding result (BRCA2 CTD;DSS1 [5]; label: 5'-32P): binds
- binding result (BRCA2T2 (NTD) [6]): binds
- binding result (BRCA2 full length): binds

B4: 3' overhang (oAC423 + oAC490 as stated) (mixed)
DNA 1: CTGCTTTATCAAGATAATTTTTCGACTCATCAGAAATATCCGTTTCCTATATTTATTCCTATTATGTTTTATTCATTTACTTATTCTTTATGTTCATTTTTTATATCCTTTACTTTATTTTCTCTGTTTATTCATTTACTTATTTTGTATTATCCTTATCTTATTTA
DNA 2: TAAATAAGATAAGGATAATACAAAATAAGTAAATGAATAAAC
- binding result (BRCA2T2 (NTD) [7]; label: 32P on oAC490): binds
- binding result (BRCA2 CTD;DSS1 [5]; label: 32P on oAC490): binds

B5: 5' overhang (oAC423 + oAC403 as stated) (mixed)
DNA 1: CTGCTTTATCAAGATAATTTTTCGACTCATCAGAAATATCCGTTTCCTATATTTATTCCTATTATGTTTTATTCATTTACTTATTCTTTATGTTCATTTTTTATATCCTTTACTTTATTTTCTCTGTTTATTCATTTACTTATTTTGTATTATCCTTATCTTATTTA
DNA 2: CGGATATTTCTGATGAGTCGAAAAATTATCTTGATAAAGCAG
- binding result (BRCA2T2 (NTD) [7]; label: 32P): binds
- binding result (BRCA2 CTD;DSS1 [5]; label: 32P): binds

B6: gapped DNA (oAC423 + oAC403 + oAC490) (mixed)
DNA 1: CTGCTTTATCAAGATAATTTTTCGACTCATCAGAAATATCCGTTTCCTATATTTATTCCTATTATGTTTTATTCATTTACTTATTCTTTATGTTCATTTTTTATATCCTTTACTTTATTTTCTCTGTTTATTCATTTACTTATTTTGTATTATCCTTATCTTATTTA
DNA 2: CGGATATTTCTGATGAGTCGAAAAATTATCTTGATAAAGCAG
DNA 3: TAAATAAGATAAGGATAATACAAAATAAGTAAATGAATAAAC
- binding signal (BRCA2T2 (NTD) [8]): ~40 fold higher yield than CTD at 1 uM
- binding result (BRCA2 CTD;DSS1 [9]): binds
